The values below come from article PMC9384509.

The target of test [1] is human Angiotensin Converting Enzyme 2 (ACE2, amino acids 19-615) fused to human IgG Fc (human) (UniProt Q9BYF1).
The target is the same in test [2]. Nature of the test: SPR.

“SARS-CoV-2 receptor binding domain (RBD, original Wuhan variant), amino acids 330-532 (domain or fragment)”: the reduction of the surface membrane ACE2 level on pericytes (immunohistochemistry, overlap with PDGFRβ) after 3 h of RBD (0.7 mg/l) on hamster brain slices; ACE2 is the endogenous hamster protein in test [1] was found to be 32%. Consider “SARS-CoV-2 receptor binding domain Y489R mutant (RBD-Y489R) (domain or fragment; other documents disagree on this pair)”, for which the percent reduction of binding against RBD-WT in test [2] is 94%.
